Holding throughout (assay): ITC
In one series the target is T1, mTet3-CXXC Q82A (Mus musculus (mouse), UniProt Q8BG87 51-96, Q82A).
T1 chain: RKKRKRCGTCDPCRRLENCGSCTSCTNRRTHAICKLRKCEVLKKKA

A further series has as its target T2, mTet3-CXXC K88A (Mus musculus (mouse), UniProt Q8BG87 51-96, K88A).
T2 chain: T1 chain with A32Q, K38A

The target of a further series is T3, mTet3-CXXC T80A (Mus musculus (mouse), UniProt Q8BG87 51-96, T80A).
T3 chain: T1 chain with T30A, A32Q

A further series addresses T4, mTet3-CXXC (Mus musculus (mouse), UniProt Q8BG87 51-96).
T4 chain: T1 chain with A32Q

The target of a further series is T5, mTet3-CXXC H81A (Mus musculus (mouse), UniProt Q8BG87 51-96, H81A).
T5 chain: T1 chain with H31A, A32Q

The next series concerns the target T6, XtTet3-CXXC (Xenopus tropicalis, UniProt A0JP82 58-99).
T6 chain: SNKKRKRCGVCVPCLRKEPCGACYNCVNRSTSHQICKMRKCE

Changes are numbered by the printed parent chain.

B1: CCG DNA (dsDNA)
DNA 1: GAATCCGGATTC
DNA 2: GAATCCGGATTC
For orientation: Kd means the free concentration of one partner at which half of the binding sites on the other are occupied at equilibrium, for simple one-to-one binding. The low end stands for tighter binding, the high end for weaker binding. In the case of B1, the dissociation constant Kd in the series with mTet3-CXXC Q82A stood at 2380 nM; in the series with mTet3-CXXC K88A it was 5320 nM; in the series with mTet3-CXXC T80A it was 1790 nM; with mTet3-CXXC, 1880 nM; with XtTet3-CXXC, 2580 nM. In the series with mTet3-CXXC H81A, the binding result is reported as “no binding”.

B2: ChmCG DNA (dsDNA)
DNA 1: GAATCCGGATTC
DNA 2: GAATCCGGATTC
modifications: 5-hydroxymethyl-dC at position 6 of both strands
In the case of B2, the dissociation constant (Kd) with XtTet3-CXXC came out at 18600 nM. In other words, the double-digit micromolar range.

B3: CmCG DNA (dsDNA)
DNA 1: GAATCCGGATTC
DNA 2: GAATCCGGATTC
modifications: 5-methyl-dC at position 6 of both strands
Consider B3, for which the dissociation constant (Kd) with mTet3-CXXC is 5590 nM; with XtTet3-CXXC, 9000 nM.

B4: CcaCG DNA (dsDNA)
DNA 1: GAATCCGGATTC
DNA 2: GAATCCGGATTC
modifications: 5-carboxyl-dC at position 6 of both strands
Turning to B4, the Kd with mTet3-CXXC Q82A was found to be 970 nM; in the series with mTet3-CXXC T80A, 910 nM; with mTet3-CXXC it was 560 nM; in the series with XtTet3-CXXC, 1300 nM. The binding result with mTet3-CXXC H81A is given as “no binding”.

B5: hemi-CcaCG DNA (dsDNA)
DNA 1: GAATCCGGATTC
DNA 2: GAATCCGGATTC
modifications: 5-carboxyl-dC at position 6 of one strand only
Regarding B5, binding in the series with mTet3-CXXC was put at a Kd of 1570 nM.

B6: CfCG DNA (dsDNA)
DNA 1: GAATCCGGATTC
DNA 2: GAATCCGGATTC
modifications: 5-formyl-dC at position 6 of both strands
For the molecule B6, the Kd came to 6130 nM with mTet3-CXXC and 10400 nM in the series with XtTet3-CXXC.

The values above are taken from paper PMC4731272.
